Data as given in patent publication US9943572B2, “Synergistic glycocalyx treatment compositions and methods” (Microvascular Health Solutions, LLC, priority 2015, dated 2018).

What was measured:
[1] = Catalase administered to mice, concentration in blood vessels; type: in vivo; settings: oral and/or intravenous administration
Source text: Thus, in addition to (naturally) produced […], which may be produced and secreted into the blood stream, exogenous or administered catalase can be absorbed into the blood stream and be available for oxidant scavenging at or adjacent to the endothelial glycocalyx (and SOD bound thereto). Accordingly, introduction and/or administration of catalase can also provide antioxidant activity in blood vessels and/or at the endothelial glycocalyx.

[2] = tested on: cultured endothelial cells; assay: Labeled glucosamine administered to cultured endothelial cells; type: cell-based
Source text: Indeed, glucosamine can increase synthesis of two main constituents of the endothelial glycocalyx, namely heparan sulfate and hyaluronan. […] Thus, the addition and/or administration of glucosamine can support endothelial glycocalyx production by providing a (necessary and/or rate-limiting) component in the synthesis thereof. Accordingly, glucosamine can be or comprise a molecular precursor of endothelial glycocalyx.

[3] = tested on: endothelial glycocalyx; assay: Exogenous labeled SOD administered to mice, localization; type: in vivo; settings: orally and/or intravenously
Source text: By so doing, the local concentration of SOD at the endothelial glycocalyx is increased, providing added or enhanced (site-directed) protection against oxygen radicals at the endothelial glycocalyx. Thus, in addition to (naturally) produced SOD, which may be synthesized and bound to the endothelium, exogenous or administered SOD can (directly) associate with (bind to) endothelial glycocalyx. Accordingly, introduction and/or administration of SOD can provide site-directed antioxidant activity at the endothelial glycocalyx.

catalase
catalase concentrations in blood vessels [1]: increases catalase concentrations in blood vessels

N[C@H]1C(O)O[C@H](CO)[C@@H](O)[C@@H]1O (stereo partly drawn) [glucosamine, Glucosamine]
incorporation of labeled glucosamine [2]: is incorporated in the glycocalyx

Superoxide dismutase [SOD]
localization of exogenous labeled SOD [3]: co-localizes (binds (directly) to) the endothelial glycocalyx
